US20090004749, “METHOD AND KIT FOR DETERMINING THE AMOUNT OF DNA BINDING PROTEIN” (SYSMEX CORPORATION, published 2009)

Columns and labels:
NF-κB (recombinant, p50) [1] = molecular target: T1, NF-κB (recombinant, p50) (UniProt P19838 P19838:1-433); experiment: fluorescence correlation spectroscopy; 1 nM probe, room temperature; 10 min; settings: tags: Promega; detected with anti-p50 antibody; chain copies: 2; label: 5'-TAMRA; hairpin, stem-loop with AAAA loop
Experimental: (§1) As a pure-line sample, 0.6 μg/μl solution of recombinant NF-κB was used. […] As the control, a pure-line sample-free sample using the fluorescent-labeled probe Pfw only as a nucleic acid probe was used. In the Reference Example, the sample to which an anti-p50 antibody had further been added was used. The reaction time was 10 minutes for each sample.

NF-κB (recombinant, p50) [2] = molecular target: T1, NF-κB (recombinant, p50); experiment: competition; FCS; unlabeled competitor against 1 nM Pfw; settings: tags: Promega; detected with anti-p50 antibody; chain copies: 2; hairpin, stem-loop with AAAA loop
Experimental: as §1

NF-κB (recombinant, p50) [3] = molecular target: T1, NF-κB (recombinant, p50); experiment: competition; FCS; no competition at 50 nM; diffusion time same as without competitor; settings: tags: Promega; detected with anti-p50 antibody; chain copies: 2; hairpin, stem-loop with AAAA loop
Experimental: as §1

T1 sequence (P19838 1-433, one chain of several): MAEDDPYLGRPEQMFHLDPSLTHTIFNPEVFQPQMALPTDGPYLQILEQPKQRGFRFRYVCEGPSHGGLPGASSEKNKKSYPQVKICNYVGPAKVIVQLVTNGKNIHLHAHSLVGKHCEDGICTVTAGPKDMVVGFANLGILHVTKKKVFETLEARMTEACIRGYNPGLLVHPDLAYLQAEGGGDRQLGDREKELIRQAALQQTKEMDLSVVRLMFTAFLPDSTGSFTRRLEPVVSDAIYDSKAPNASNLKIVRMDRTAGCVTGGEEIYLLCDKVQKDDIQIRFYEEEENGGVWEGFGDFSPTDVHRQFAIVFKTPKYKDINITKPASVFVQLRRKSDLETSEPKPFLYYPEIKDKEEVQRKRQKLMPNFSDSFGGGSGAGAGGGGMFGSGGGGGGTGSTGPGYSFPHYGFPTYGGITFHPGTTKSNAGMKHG

B1: Pfw (structured_DNA)
DNA: AGTTGAGGGGACTTTCCCAGGCAAAAGCCTGGGAAAGTCCCCTCAACT
- binding result (NF-κB (recombinant, p50) [1]): binds

B2: Pw (structured_DNA)
DNA: AGTTGAGGGGACTTTCCCAGGCAAAAGCCTGGGAAAGTCCCCTCAACT
- binding result (NF-κB (recombinant, p50) [2]): binds

B3: Pn (structured_DNA)
DNA: CAGGCGCGTTTTGACCATCTTAAAAAAGATGGTCAAAACGCGCCTG
- binding result (NF-κB (recombinant, p50) [3]): no binding
